Molecular target: human cathepsin B (human, UniProt P07858 80-333)
Experiment: second-order association rate constant from continuous hydrolysis of (Z-FR)2-R110, pseudo-first order conditions, 20 nM cathepsin B, 200 or 400 nM Spi2A
Method: Kinetics of cathepsin B inhibition by Spi2A. […] Briefly, 20 nM cathepsin B was added to 5 μM substrate, in presence or in absence of 200 or 400 nM (10- or 20-fold excess respectively) of Spi2A in activation buffer. Reactions were performed in 96-well microtitre plates. The final reaction volume was 200 μl. The rate of substrate hydrolysis was continuously monitored for 3 min. The dead time for the measurement (the time between the addition of the enzyme to the substrate (with or without inhibitor) and the first spectrophotometric measurement was ˜30 s.

B1: Spi2A-3xFLAG (murine serine protease inhibitor 2A with a C-terminal 3xFLAG epitope tag) (other)
chain: MAGVSPAVFGCPDVTLGRNTAVREVQENVTSVDSLTLVSSNTDFAFSLYRKLVLKNPDENVVFSPFSICTALALLSLGAKSNTLKEILEGLKFNLTETPEPDIHQGFRYLLDLLSQPGNQVQISTGSALFIEKHLQILAEFKEKARALYQAEAFTADFQQPLKATKLINDYVSNHTQGKIKELISGLKESTLMVLVNYIYFKGKWKNPFDPNDTFKSEFYLDEKRSVIVSMMKTGYLTTPYFRDEELSCTVVELKYTGNASAMFILPDQGRMQQVEASLQPETLRKWKNSLKPRMIHELRLPKFSISTDYSLEHILPELGIREVFSTHADLSAITGTKDLRVSQVVHKAVLDVAEKGTEAAAATGMAGVGCCAVFDFLEIFFNRPFLMIISDTKAHIALFMAKVTNPERSTNFPNGEGASSQRLESKRLCFGDPLCLIGQ
notes: Purified from lysates of RelA-/- MEFs transduced with retrovirus encoding Spi2A-3xFLAG (ion exchange, then anti-FLAG column); The ORF was amplified from T cell cDNA; also called FLAG-tagged Spi2A; not shown: C-terminal 3xFLAG (22 amino acids) from the 3xFLAG-CMV-14 vector
For B1, which kon is on record?
Its kon is > 1e+06 M⁻¹ s⁻¹.
